# Measured values taken from US20150266963A1 (ARGEN X B V, published 2015).
# Numbering of substitutions follows the chain as printed.
# T1: human CD70 expressed on the surface of cells (human, UniProt P32970 1-193)
# T1 construct: whole, on cells; also called cell surface expressed CD70; CD70 on cells
# T1 sequence (looked up): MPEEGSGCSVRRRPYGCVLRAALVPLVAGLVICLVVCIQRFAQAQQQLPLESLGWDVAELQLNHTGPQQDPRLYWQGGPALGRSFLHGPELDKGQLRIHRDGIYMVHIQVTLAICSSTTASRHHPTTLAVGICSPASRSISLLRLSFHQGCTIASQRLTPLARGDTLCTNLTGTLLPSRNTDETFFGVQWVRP
# T2: human-mouse CD70 chimera chim-2 (Flag-TNC-CD70)
# T2 construct: also called chimera 2
# T2 chain: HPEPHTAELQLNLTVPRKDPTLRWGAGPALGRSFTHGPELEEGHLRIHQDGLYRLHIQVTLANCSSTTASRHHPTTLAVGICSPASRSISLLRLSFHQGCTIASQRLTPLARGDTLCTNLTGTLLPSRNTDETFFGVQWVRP
# T3: human-mouse CD70 chimera chim-4 (Flag-TNC-CD70) (Mus musculus (Mouse), UniProt O55237 54-192)
# T3 construct: also called chimera 4
# T3 chain: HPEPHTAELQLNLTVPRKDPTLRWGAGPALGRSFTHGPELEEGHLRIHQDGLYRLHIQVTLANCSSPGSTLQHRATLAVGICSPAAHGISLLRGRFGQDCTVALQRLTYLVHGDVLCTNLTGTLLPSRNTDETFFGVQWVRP
# T4: human-mouse CD70 chimera chim-3 (Flag-TNC-CD70)
# T4 construct: also called chimera 3
# T4 chain: T2 chain with T67P, T68G, A69S, S70T, R71L, H72Q, P74R, T75A
# B1: ARGX-110 (non-fucosylated 41D12 human IgG1) (antibody, V domains shown)
# VH: EVQLVESGGGLVQPGGSLRLSCAASGFTFSVYYMNWVRQAPGKGLEWVSDINNEGGTTYYADSVKGRFTISRDNSKNSLYLQMNSLRAEDTAVYYCARDAGYSNHVPIFDSWGQGTLVTVSS
# VL: QAVVTQEPSLTVSPGGTVTLTCGLKSGSVTSDNFPTWYQQTPGQAPRLLIYNTNTRHSGVPDRFSGSILGNKAALTITGAQADDEAEYFCALFISNPSVEFGGGTQLTVLG
# notes: also called 41D12 (ARGX-110)
# Experiments:
# [1] = target: T1, human CD70 expressed on the surface of …; experiment: FACS MFI at 37 C, MKN-45 cells; reference SGN70
# Protocol: (§1) Several cancer cell lines were tested by FACS analysis for binding of ARGX-110 and SGN70 (described in US2010/0129362) at saturating mAb concentrations (at least 2 μg/ml). This was either done at 4° C. (1 hour incubation of cells with mAbs) or at 37° C. (15 minutes incubation of cells with mAbs). Binding was detected using anti-hIgG1-Fc-FITC (AF006, Binding Site) or anti-hIgG1-Fc-PE antibody (eBioscience, 12-4998). Fluorescence was measured using a flow cytometer.
# [2] = target: T1, human CD70 expressed on the surface of …; experiment: FACS MFI at 37 C, JVM-2 cells; reference SGN70
# Protocol: as §1
# [3] = target: T1, human CD70 expressed on the surface of …; experiment: FACS MFI at 37 C, PANC-1 cells; reference SGN70
# Protocol: as §1
# [4] = target: T1, human CD70 expressed on the surface of …; experiment: FACS MFI at 37 C, SU-DHL-6 cells; reference SGN70
# Protocol: as §1
# [5] = target: T2, human-mouse CD70 chimera chim-2 …; experiment: ELISA; chimera captured by anti-Flag mAb
# [6] = target: T3, human-mouse CD70 chimera chim-4 …; experiment: ELISA; chimera captured by anti-Flag mAb
# [7] = target: T4, human-mouse CD70 chimera chim-3 …; experiment: ELISA; chimera captured by anti-Flag mAb
# [8] = target: T1, human CD70 expressed on the surface of …; experiment: FACS MFI at 37 C, EBC-1 cells; reference SGN70
# Protocol: as §1
# [9] = target: T1, human CD70 expressed on the surface of …; experiment: flow cytometry on U266 cells, 1 h at 4 °C, anti-hIgG1-Fc-FITC or anti-hIgG-Fc-PE [panel U266]
# Protocol: […] This was either done at 4° C. (1 hour incubation of cells with mAbs) or at 37° C. (15 minutes incubation of cells with mAbs). Binding was detected using anti-hIgG1-Fc-FITC (AF006, Binding Site) or anti-hIgG1-Fc-PE antibody (eBioscience, 12-4998). Fluorescence was measured using a flow cytometer.
# [10] = target: T1, human CD70 expressed on the surface of …; experiment: flow cytometry on U266 cells, goat anti human IgG1 FITC [panel U266]
# [11] = target: T5, rhesus recombinant CD70 (FLAG-TNC-rhesus CD70) (rhesus); experiment: blocking ELISA; rhesus Flag-TNC-CD70; competitor CD27-Fc
# T5 construct: also called rhesus Flag-TNC-CD70
binder,measurement,setting,value
B1,Signal in FACS of ARGX-110/signal in FACS of SGN70,[1],10.6 ratio
same,Signal in FACS of ARGX-110/signal in FACS of SGN70,[2],2.4 ratio
same,Signal in FACS of ARGX-110/signal in FACS of SGN70,[3],2.9 ratio
same,Signal in FACS of ARGX-110/signal in FACS of SGN70,[4],2.4 ratio
same,binding result,[5],no binding (tested: dilution series from 10 µg/ml)
same,binding result,[6],no binding (tested: dilution series from 10 µg/ml)
same,binding result,[7],no binding (tested: dilution series from 10 µg/ml)
same,Signal in FACS of ARGX-110/signal in FACS of SGN70,[8],8.9 ratio
same,EC50 (read off the curve),[9],~0.1 µg/mL
same,EC50 (read off the curve),[10],~0.1 µg/mL
same,IC50,[11],0.075 µg/mL
